Data taken from patent US20230235073A1 (ONA THERAPEUTICS S L, published 2023).

Assays:
[1] = molecular target: T1, human CD36 on cells overexpressing human CD36 (human, UniProt P16671 2-472); assay: FACS on cells overexpressing human CD36, % of Binding
Experimental: For FACS analysis, cells were trypsinized, collected in a 15 mL tube and diluted in washing buffer (2% FBS in PBS). Cells were then centrifuged at 1500 rpm for 5 min at 4° C., supernatant was discarded, and cells were resuspended in fresh washing buffer. Anti-CD36 antibodies were either omitted (control wash buffer treatment) or serially diluted in washing buffer (dilution range up to 100 nM), and then added to the cells. Incubation was performed on ice for 1 hour. Cells were then centrifuged at 1500 rpm for 5 min at 4° C., supernatant was discarded, and cells were resuspended in fresh washing buffer. Finally, cells were incubated with a […] (BV421 Rat Anti-Mouse IgA, Becton Dickinson, reference 743293) diluted 1:100 in washing buffer, washed and analysed by FACS.

[2] = molecular target: T2, human CD36 recombinant protein (Sino Biological, reference 10752-H08H) (human, UniProt P16671 30-439); assay: ELISA, plate coated with human CD36, OD630nm
T2 construct: Bought recombinant protein
T2 sequence (P16671 30-439 limits assumed): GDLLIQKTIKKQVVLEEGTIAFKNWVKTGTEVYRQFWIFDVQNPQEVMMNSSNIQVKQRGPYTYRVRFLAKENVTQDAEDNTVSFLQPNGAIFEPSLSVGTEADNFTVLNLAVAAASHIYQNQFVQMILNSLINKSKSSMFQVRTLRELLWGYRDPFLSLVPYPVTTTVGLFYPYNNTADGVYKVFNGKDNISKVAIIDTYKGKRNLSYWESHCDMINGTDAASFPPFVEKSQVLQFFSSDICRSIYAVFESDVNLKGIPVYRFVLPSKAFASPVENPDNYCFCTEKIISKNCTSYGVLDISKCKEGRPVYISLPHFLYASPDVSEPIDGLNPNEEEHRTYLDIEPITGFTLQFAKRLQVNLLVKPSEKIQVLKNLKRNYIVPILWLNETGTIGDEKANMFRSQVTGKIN
Experimental: (§1) To perform ELISA assays, 96-well ELISA plates were coated over night with human CD36 (Sino Biological, reference 10752-H08H) or mouse CD36 (Sino Biological, reference 50422-M08H) recombinant proteins at a concentration of 0.25 mg/ml. After two washes with PBS, plates were blocked with 4% skimmed milk in PBS for 1 hour at 37° C. Blocking solution was discarded and plates were washed five times with 200 μl/well PBS-Tween20 (0.5%). Primary antibodies were either omitted (control blocking solution treatment) or mixed in blocking solution at several dilutions ranging from 0.01 nM to 0.5 μM. The primary antibody solutions were added to the wells and incubated over night at 4° C. After 5 washes with 200 ul/well of PBS-Tween20 (0.5%), plates were incubated for 1 hour at room temperature with a goat anti-mouse HRP-conjugated antibody (Abeam, reference ab97235) diluted 1:2000 in blocking solution. Plates were then washed 5 times with 200 μl/well of PBS-Tween20 (0.5%), incubated with 100 μl/well TMB and detected after 10 minutes, 30 minutes, or 60 minutes with a spectrophotometer at a wave length of 630 nm.

[3] = molecular target: T1, human CD36 on cells overexpressing …; assay: FACS on cells overexpressing human CD36, GeoMFI against Log10 mAb Concentration (nM)
[4] = molecular target: T2, human CD36 recombinant protein (Sino …); assay: SPR Biacore T200, antibody captured on protein A, CD36 analyte 3.3-333 nM, 1-to-1 model
Experimental: (§2) The affinity of ONA-0-v1, 1G04, and a commercial anti-CD36 antibody (JC63.1) for human CD36 was also measured by surface plasmon resonance (SPR) using a Biacore T200. 1G04 was analysed using a protein A capture surface, with a capture range of 100-150 RU and an antigen titration range of 3.3-333 nM. The mouse antibodies ONA-0-V1 and the commercial anti-CD36 antibody were analysed using an anti-mouse IgA capture surface, with a capture range of 160-180 RU and an antigen titration range of 3.3-333 nM. For each single analysis cycle a titration of five antigen concentrations were injected over the captured antibody and then the dissociation of the complex was measured. A double referencing method was employed in which data from the reference surfaces where no antibody was captured (fc 1 and 3 respectively) were subtracted from the antibody bound capture surface (fc 2 and 4). Blank injections of buffer were run for every antigen titration cycle and then subtracted from analyte injection cycles, to correct for small changes in the antibody capture surface density. All analysis was performed at 25° C., and the sample rack was kept at 6° C. during experimental runs. Each experiment was run at least three times with the mean binding constants generated from at least two independent assays reported. All analysis was performed in PBS-T running buffer at 40 μL/min.

[5] = molecular target: T1, human CD36 on cells overexpressing …; assay: FACS on cells overexpressing human CD36, MFI
[6] = molecular target: T2, human CD36 recombinant protein (Sino …); assay: ELISA, plate coated with human CD36, OD630, panel 'Coating: human CD36'; Kd printed beside the 1G04 curve
Experimental: as §1

[7] = molecular target: T2, human CD36 recombinant protein (Sino …); assay: SPR Biacore T200, antibody captured on protein A, CD36 analyte, 2-state model
Experimental: as §2

[8] = molecular target: T3, mouse CD36 recombinant protein (Sino Biological, reference 50422-M08H) (mouse, UniProt Q08857 30-439); assay: ELISA, plate coated with mouse CD36, OD630, panel 'Coating: mouse CD36'; Kd printed beside the 1G04 curve
T3 construct: Bought recombinant protein; also called murine CD36
T3 sequence (Q08857 30-439 limits assumed, stated change not applied): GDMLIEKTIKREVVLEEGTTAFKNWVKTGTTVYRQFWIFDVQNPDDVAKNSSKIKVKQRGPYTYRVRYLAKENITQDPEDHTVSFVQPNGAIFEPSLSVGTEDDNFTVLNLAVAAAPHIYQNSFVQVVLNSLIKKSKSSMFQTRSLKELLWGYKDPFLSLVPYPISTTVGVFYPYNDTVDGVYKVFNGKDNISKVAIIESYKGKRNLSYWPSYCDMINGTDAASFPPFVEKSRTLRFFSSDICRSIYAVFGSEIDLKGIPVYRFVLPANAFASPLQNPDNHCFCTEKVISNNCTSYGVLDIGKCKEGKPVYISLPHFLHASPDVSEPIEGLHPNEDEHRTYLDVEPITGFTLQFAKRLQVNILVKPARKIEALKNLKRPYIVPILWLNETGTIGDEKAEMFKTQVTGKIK
Experimental: as §1

[9] = molecular target: T3, mouse CD36 recombinant protein (Sino …); assay: ELISA, plate coated with mouse CD36, OD630nm
Experimental: as §1

[10] = molecular target: T3, mouse CD36 recombinant protein (Sino …); assay: estimated from ELISA, CD36 coated on plate; mouse CD36 coated on plate
Experimental: as §1

[11] = molecular target: T3, mouse CD36 recombinant protein (Sino …); assay: ELISA, plate coated with mouse CD36, OD630, panel 'Coating: mouse CD36'
Experimental: as §1

[12] = molecular target: T2, human CD36 recombinant protein (Sino …); assay: estimated from ELISA, CD36 coated on plate; human CD36 coated on plate
Experimental: as §1

[13] = molecular target: T2, human CD36 recombinant protein (Sino …); assay: SPR Biacore T200, antibody captured on anti-mouse IgA, CD36 analyte, 2-state model
Experimental: as §2

[14] = molecular target: T2, human CD36 recombinant protein (Sino …); assay: SPR Biacore T200, antibody captured on anti-mouse IgA, CD36 analyte 3.3-333 nM, 1-to-1 model
Experimental: as §2

T1 sequence (P16671 2-472 limits assumed): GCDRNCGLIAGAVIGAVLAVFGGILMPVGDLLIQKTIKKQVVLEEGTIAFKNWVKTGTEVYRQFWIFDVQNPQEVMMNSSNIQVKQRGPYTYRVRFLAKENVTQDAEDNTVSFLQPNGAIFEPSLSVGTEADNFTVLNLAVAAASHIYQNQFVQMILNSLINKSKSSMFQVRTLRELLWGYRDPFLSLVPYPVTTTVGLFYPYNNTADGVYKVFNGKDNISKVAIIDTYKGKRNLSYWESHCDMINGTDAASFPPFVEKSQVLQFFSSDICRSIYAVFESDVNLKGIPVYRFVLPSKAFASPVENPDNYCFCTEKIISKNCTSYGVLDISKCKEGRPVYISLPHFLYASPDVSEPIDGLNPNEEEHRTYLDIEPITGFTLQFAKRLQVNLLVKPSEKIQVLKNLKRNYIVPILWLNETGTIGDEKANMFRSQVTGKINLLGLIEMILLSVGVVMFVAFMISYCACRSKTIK

B1: 1G04 (chimeric ONA-0-v1 IgG1 LALA antibody) (antibody)
heavy: not shown
light: SIVMTQTPKFLLVSAGDRITITCKASQSVSDDVAWYQQKPGQSPKLLIYYASNRYTGVPDRFTGSGYGTDFTFTISTVQAEDLAVYFCQQDYSSPLTFGAGTKLEIKRTVAAPSVFIFPPSDEQLKSGTASVVCLLNNFYPREAKVQWKVDNALQSGNSQESVTEQDSKDSTYSLSSTLTLSKADYEKHKVYACEVTHQGLSSPVTKSFNRGEC
notes: Human IgG1 with the LALA alteration, human kappa light chain; also called 1G04 (IgG1)
B1 was tested, and the “EC50 (read off the curve)” value [1] was about 0.03 nM, the “EC50 (read off the curve)” value [2] was about 80 pM and the “EC50 (read off the curve)” value [3] was about 0.4 nM. It also gave a Kd [4] of 1.74 nM, a koff [4] of 0.000159 s⁻¹ and a kon [4] of 100000 M⁻¹ s⁻¹. For the same binder, the “EC50 (read off the curve)” value [5] was about 0.2 nM, the Kd [6] was 0.04 nM and the Kd [7] was 2.78 nM. For the same binder, the Kd [8] was 0.1 nM and the “EC50 (read off the curve)” value [9] was about 300 pM.

B2: 1G06 antibody (chimeric ONA-0-v1 IgG1) (antibody)
heavy: QVQLKQSGADLVRPGASVKLSCKASGYTFTDYYINWVKQRPGQGLEWIARIYPGSGNTYYNEKFKGKATLTAEKSSSTAYMQLSSLTSEDSAVYFCARGIGGGFGMDYWGQGTSVTVSSASTKGPSVFPLAPSSKSTSGGTAALGCLVKDYFPEPVTVSWNSGALTSGVHTFPAVLQSSGLYSLSSVVTVPSSSLGTQTYICNVNHKPSNTKVDKKVEPKSCDKTHTCPPCPAPESTRGPSVFLFPPKPKDTLMISRTPEVTCVVVDVSHEDPEVKFNWYVDGVEVHNAKTKPREEQYNSTYRVVSVLTVLHQDWLNGKEYKCKVSNKALPAPIEKTISKAKGQPREPQVYTLPPSRDELTKNQVSLTCLVKGFYPSDIAVEWESNGQPENNYKTTPPVLDSDGSFFLYSKLTVDKSRWQQGNVFSCSVMHEALHNHYTQKSLSLSPGK
light: SIVMTQTPKFLLVSAGDRITITCKASQSVSDDVAWYQQKPGQSPKLLIYYASNRYTGVPDRFTGSGYGTDFTFTISTVQAEDLAVYFCQQDYSSPLTFGAGTKLEIKRTVAAPSVFIFPPSDEQLKSGTASVVCLLNNFYPREAKVQWKVDNALQSGNSQESVTEQDSKDSTYSLSSTLTLSKADYEKHKVYACEVTHQGLSSPVTKSFNRGEC
For B2, the “EC50 (read off the curve)” value [2] was about 80 pM and the “EC50 (read off the curve)” value [3] was about 0.4 nM.

B3: ONA-0-v1 anti-CD36 antibody (murine IgA) (antibody)
heavy: QVQLKQSGADLVRPGASVKLSCKASGYTFTDYYINWVKQRPGQGLEWIARIYPGSGNTYYNEKFKGKATLTAEKSSSTAYMQLSSLTSEDSAVYFCARGIGGGFGMDYWGQGTSVTVSSESARNPTIYPLTLPPVLCSDPVIIGCLIHDYFPFGTMNVTWGKSGKDITTVNFPPALASGGRYTMSSQLTLPAVECPEGESVKCSVQHDSNPVQELDVNCSPTPPPPITIPSCQPSLSLQRPALEDLLLGSDASITCTLNGLRNPEGAAFTWEPSTGKDAVQKKAAQNSCGCYSVSSVLPGCAERWNSGASFKCTVTHPESGTLTGTIAKVTVNTFPPQVHLLPPPSEELALNELLSLTCLVRAFNPKEVLVRWLHGNEELSPESYLVFEPLKEPGEGATTYLVTSVLRVSAETWKQGDQYSCMVGHEALPMNFTQKTIDRLSGKPTNVSVSVIMSEGDGICY
light: SIVMTQTPKFLLVSAGDRITITCKASQSVSDDVAWYQQKPGQSPKLLIYYASNRYTGVPDRFTGSGYGTDFTFTISTVQAEDLAVYFCQQDYSSPLTFGAGTKLEIKRADAAPTVSIFPPSSEQLTSGGASVVCFLNNFYPKDINVKWKIDGSERQNGVLNSWTDQDSKDSTYSMSSTLTLTKDEYERHNSYTCEATHKTSTSPIVKSFNRNEC
notes: mouse IgA constant region; produced in HEK 293 cells; also called ONA-0-v1 (IgA); ONA-O-v1 (IgA)
For B3, the “EC50 (read off the curve)” value [1] was about 0.03 nM, the Kd [10] was about 0.1 nM and the “EC50 (read off the curve)” value [11] was about 1 nM. For the same binder, the Kd [12] was about 0.04 nM, the Kd [13] was 8.72 nM and the Kd [14] was 5.85 nM. It also gave a koff [14] of 0.00354 s⁻¹ and a kon [14] of 632000 M⁻¹ s⁻¹.
